How the values were obtained:
[1] = molecular target: Klebsiella aerogenes UreE (Klebsiella aerogenes); experiment: SEC
[2] = molecular target: C28A UreGStr (Klebsiella aerogenes) (UniProt P18319); experiment: SEC

Substance | stoichiometry N [1] | stoichiometry N [2]
Klebsiella aerogenes UreE (natural protein) | 2 | 
C28A UreGStr (from UniProt P18319 1-205) (natural protein) |  | 2
